From the supplement of paper PMC10065799, “High-throughput profiling of sequence recognition by tyrosine kinases and SH2 domains using bacterial peptide display” (eLife, 2023)

target: Hck (UniProt P08631); assay: phosphorylation enrichment, bacterial display (enrichment ratio); higher = better substrate or ligand; peptides without Tyr show the background
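Also: 11-residue human phosphosite peptides and single-mutation variants displayed on the E. coli surface, counted by deep sequencing, each peptide's frequency after selection divided by its frequency in the unselected input library; frequency after pTyr selection over input frequency; kinase dosed for 20-30% of maximal phosphorylation in three min.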

Hck, sequence (P08631 whole entry, looked up): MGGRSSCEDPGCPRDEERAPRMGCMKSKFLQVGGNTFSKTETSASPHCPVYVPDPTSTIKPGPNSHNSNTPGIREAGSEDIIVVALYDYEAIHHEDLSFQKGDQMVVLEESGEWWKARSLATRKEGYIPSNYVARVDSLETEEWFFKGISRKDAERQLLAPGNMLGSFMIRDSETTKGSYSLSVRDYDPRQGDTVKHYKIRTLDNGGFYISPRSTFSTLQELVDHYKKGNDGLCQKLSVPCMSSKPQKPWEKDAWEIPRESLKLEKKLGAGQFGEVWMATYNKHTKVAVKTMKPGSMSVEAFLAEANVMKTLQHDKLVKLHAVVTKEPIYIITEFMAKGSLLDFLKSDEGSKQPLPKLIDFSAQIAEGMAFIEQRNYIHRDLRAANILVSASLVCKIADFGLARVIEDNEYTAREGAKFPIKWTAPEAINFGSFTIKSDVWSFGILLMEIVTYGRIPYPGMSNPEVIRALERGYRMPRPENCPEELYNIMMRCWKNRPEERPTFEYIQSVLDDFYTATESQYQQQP

Sequence	phosphorylation enrichment
EAEPFYCSLRD [NPHS1_Y1139_R1140C_YF]	2.54
HQKKPYCHAHN [NRAP_Y53]	1.05
LTERDYSFVTT [ACTG2_Y199_G198D]	1.62
LAVPLYKNGVK [CPS1_Y1069]	0.574
YSNKLHYQLEQ [PDPR_Y109_Y109H]	0.535
SVMAEYGLFGA [VSX2_Y219_YF]	2.94
ADDSFYTARSA [ZAP70_Y493_YF]	1.01
INNIDYYKKTT [FGFR2_Y656]	0.486
EWQQIYTFDSG [JUP_Y20_T19I_YF]	7.35
TRSYDYMEGED [FGF7_Y58_G62E]	0.549
CTTIHYNFMCH [TP53_Y234_N239H_YF]	0.441
VDHFGYNKDDK [APOB_Y740_T741N]	0.436
VATRWYRSLEL [CDKL5_Y177_P180L]	0.432
HFGCVYRGTLL [MET_Y1093_H1094R]	0.607
PEIIAYQPFGK [PRKCG_Y529_YF]	0.798
RAILNYIASKF [GSTA3_Y74_YF]	0.854
VRSTEYPCAGL	0.338

Sequence	phosphorylation enrichment
TKDTFYQQPMF [GBA_Y451_K452Q]	0.91
KEIHAYRKLLE [LMNA_Y376_M371K]	0.476
APGNAYGDAGY [SYP_Y250_D248N]	0.474
PFGQWYESHFA [RPS8_Y113_R110G_YF]	1.53
FQEKSYIKGTS [LCTL_Y331_L326F]	0.398
NHRNQYQALKT [CLSPN_Y887_P892T]	0.506
EFNLMYHGTKE [IRF6_Y97_D98H]	0.455
VVSLFYGTALF [OR10C1_Y251_M246V]	1.42
VRFMADTDETF [F8_Y450_Y450D]	0.59
VQNIVYRTASI [CYP39A1_Y102]	0.36
SSWKLYPRMLR [HAO1_Y50_R46S]	0.433
KVALVYGQMNQ [ATP5F1B_Y269_E274Q]	1.78
AGREIYESEKC [TTN_Y4424_D4427E]	0.495
TYQYKYPEGSS [TGM4_Y440_E437Q]	0.455
TENAGYFFQVS	0.442
ASRKFYAMKIL [AKT3_Y174_G171R_YF]	0.417

target: Fyn (UniProt P06241); assay: as above
Sequence (P06241 whole entry, looked up): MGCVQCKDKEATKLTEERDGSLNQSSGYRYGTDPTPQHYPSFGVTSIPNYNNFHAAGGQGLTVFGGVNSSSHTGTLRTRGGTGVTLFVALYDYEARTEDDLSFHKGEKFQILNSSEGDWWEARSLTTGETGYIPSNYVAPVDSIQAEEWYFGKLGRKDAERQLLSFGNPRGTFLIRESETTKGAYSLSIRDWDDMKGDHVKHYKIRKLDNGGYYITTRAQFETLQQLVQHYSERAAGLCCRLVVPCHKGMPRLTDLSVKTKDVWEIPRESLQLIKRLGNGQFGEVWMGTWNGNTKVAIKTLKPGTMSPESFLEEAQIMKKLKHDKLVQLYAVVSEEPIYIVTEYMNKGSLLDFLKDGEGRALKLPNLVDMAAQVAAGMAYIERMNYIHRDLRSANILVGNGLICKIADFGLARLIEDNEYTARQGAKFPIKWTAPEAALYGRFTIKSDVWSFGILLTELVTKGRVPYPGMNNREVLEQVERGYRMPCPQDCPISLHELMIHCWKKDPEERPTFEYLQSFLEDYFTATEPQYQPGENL

Sequence	phosphorylation enrichment
EAEPFYCSLRD [NPHS1_Y1139_R1140C_YF]	2.66
HQKKPYCHAHN [NRAP_Y53]	0.828
LTERDYSFVTT [ACTG2_Y199_G198D]	1.93
LAVPLYKNGVK [CPS1_Y1069]	0.777
YSNKLHYQLEQ [PDPR_Y109_Y109H]	0.568
SVMAEYGLFGA [VSX2_Y219_YF]	7.22
ADDSFYTARSA [ZAP70_Y493_YF]	0.711
INNIDYYKKTT [FGFR2_Y656]	0.425
EWQQIYTFDSG [JUP_Y20_T19I_YF]	11.9
TRSYDYMEGED [FGF7_Y58_G62E]	0.607
CTTIHYNFMCH [TP53_Y234_N239H_YF]	0.533
VDHFGYNKDDK [APOB_Y740_T741N]	0.485
VATRWYRSLEL [CDKL5_Y177_P180L]	0.385
HFGCVYRGTLL [MET_Y1093_H1094R]	0.862
PEIIAYQPFGK [PRKCG_Y529_YF]	0.688
RAILNYIASKF [GSTA3_Y74_YF]	0.66
VRSTEYPCAGL	0.397

Sequence	phosphorylation enrichment
TKDTFYQQPMF [GBA_Y451_K452Q]	0.664
KEIHAYRKLLE [LMNA_Y376_M371K]	0.344
APGNAYGDAGY [SYP_Y250_D248N]	0.418
PFGQWYESHFA [RPS8_Y113_R110G_YF]	1.32
FQEKSYIKGTS [LCTL_Y331_L326F]	0.364
NHRNQYQALKT [CLSPN_Y887_P892T]	0.451
EFNLMYHGTKE [IRF6_Y97_D98H]	0.463
VVSLFYGTALF [OR10C1_Y251_M246V]	1.94
VRFMADTDETF [F8_Y450_Y450D]	0.54
VQNIVYRTASI [CYP39A1_Y102]	0.382
SSWKLYPRMLR [HAO1_Y50_R46S]	0.404
KVALVYGQMNQ [ATP5F1B_Y269_E274Q]	2.16
AGREIYESEKC [TTN_Y4424_D4427E]	0.525
TYQYKYPEGSS [TGM4_Y440_E437Q]	0.567
TENAGYFFQVS	0.435
ASRKFYAMKIL [AKT3_Y174_G171R_YF]	0.45

target: Fes (UniProt P07332); assay: as above
Sequence (P07332 whole entry, looked up): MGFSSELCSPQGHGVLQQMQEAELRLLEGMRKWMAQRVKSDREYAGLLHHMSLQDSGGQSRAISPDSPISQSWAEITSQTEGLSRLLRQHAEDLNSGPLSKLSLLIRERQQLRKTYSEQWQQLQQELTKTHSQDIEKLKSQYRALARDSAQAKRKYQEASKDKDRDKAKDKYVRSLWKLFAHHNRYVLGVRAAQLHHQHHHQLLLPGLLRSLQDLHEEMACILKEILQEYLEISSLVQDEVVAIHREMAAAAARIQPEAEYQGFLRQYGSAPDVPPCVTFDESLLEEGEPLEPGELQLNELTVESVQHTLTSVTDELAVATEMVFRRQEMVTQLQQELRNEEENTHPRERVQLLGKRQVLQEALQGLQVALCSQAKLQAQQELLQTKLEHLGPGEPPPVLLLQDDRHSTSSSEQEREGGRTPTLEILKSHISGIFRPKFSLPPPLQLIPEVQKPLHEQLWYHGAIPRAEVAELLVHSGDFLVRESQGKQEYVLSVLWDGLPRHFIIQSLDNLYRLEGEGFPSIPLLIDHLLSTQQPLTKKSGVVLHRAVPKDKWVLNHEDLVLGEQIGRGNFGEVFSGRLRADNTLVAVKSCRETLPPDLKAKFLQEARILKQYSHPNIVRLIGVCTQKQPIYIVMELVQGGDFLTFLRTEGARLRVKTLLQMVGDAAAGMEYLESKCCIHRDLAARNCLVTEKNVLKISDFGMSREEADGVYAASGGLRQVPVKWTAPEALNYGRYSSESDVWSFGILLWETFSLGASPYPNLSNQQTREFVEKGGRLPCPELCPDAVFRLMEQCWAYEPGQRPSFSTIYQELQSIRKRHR

Sequence	phosphorylation enrichment
EAEPFYCSLRD [NPHS1_Y1139_R1140C_YF]	1.36
HQKKPYCHAHN [NRAP_Y53]	1.62
LTERDYSFVTT [ACTG2_Y199_G198D]	1.6
LAVPLYKNGVK [CPS1_Y1069]	0.856
YSNKLHYQLEQ [PDPR_Y109_Y109H]	0.782
SVMAEYGLFGA [VSX2_Y219_YF]	0.774
ADDSFYTARSA [ZAP70_Y493_YF]	0.993
INNIDYYKKTT [FGFR2_Y656]	0.876
EWQQIYTFDSG [JUP_Y20_T19I_YF]	1.58
TRSYDYMEGED [FGF7_Y58_G62E]	1.47
CTTIHYNFMCH [TP53_Y234_N239H_YF]	0.97
VDHFGYNKDDK [APOB_Y740_T741N]	0.874
VATRWYRSLEL [CDKL5_Y177_P180L]	0.742
HFGCVYRGTLL [MET_Y1093_H1094R]	1.66
PEIIAYQPFGK [PRKCG_Y529_YF]	1.1
RAILNYIASKF [GSTA3_Y74_YF]	1.73
VRSTEYPCAGL	0.798

Sequence	phosphorylation enrichment
TKDTFYQQPMF [GBA_Y451_K452Q]	0.805
KEIHAYRKLLE [LMNA_Y376_M371K]	0.76
APGNAYGDAGY [SYP_Y250_D248N]	0.77
PFGQWYESHFA [RPS8_Y113_R110G_YF]	1.43
FQEKSYIKGTS [LCTL_Y331_L326F]	0.657
NHRNQYQALKT [CLSPN_Y887_P892T]	0.656
EFNLMYHGTKE [IRF6_Y97_D98H]	0.94
VVSLFYGTALF [OR10C1_Y251_M246V]	1.43
VRFMADTDETF [F8_Y450_Y450D]	1.3
VQNIVYRTASI [CYP39A1_Y102]	0.619
SSWKLYPRMLR [HAO1_Y50_R46S]	0.871
KVALVYGQMNQ [ATP5F1B_Y269_E274Q]	1.27
AGREIYESEKC [TTN_Y4424_D4427E]	0.925
TYQYKYPEGSS [TGM4_Y440_E437Q]	0.905
TENAGYFFQVS	1.08
ASRKFYAMKIL [AKT3_Y174_G171R_YF]	0.617

target: Jak2 (UniProt O60674); assay: as above
Sequence (O60674 whole entry, looked up): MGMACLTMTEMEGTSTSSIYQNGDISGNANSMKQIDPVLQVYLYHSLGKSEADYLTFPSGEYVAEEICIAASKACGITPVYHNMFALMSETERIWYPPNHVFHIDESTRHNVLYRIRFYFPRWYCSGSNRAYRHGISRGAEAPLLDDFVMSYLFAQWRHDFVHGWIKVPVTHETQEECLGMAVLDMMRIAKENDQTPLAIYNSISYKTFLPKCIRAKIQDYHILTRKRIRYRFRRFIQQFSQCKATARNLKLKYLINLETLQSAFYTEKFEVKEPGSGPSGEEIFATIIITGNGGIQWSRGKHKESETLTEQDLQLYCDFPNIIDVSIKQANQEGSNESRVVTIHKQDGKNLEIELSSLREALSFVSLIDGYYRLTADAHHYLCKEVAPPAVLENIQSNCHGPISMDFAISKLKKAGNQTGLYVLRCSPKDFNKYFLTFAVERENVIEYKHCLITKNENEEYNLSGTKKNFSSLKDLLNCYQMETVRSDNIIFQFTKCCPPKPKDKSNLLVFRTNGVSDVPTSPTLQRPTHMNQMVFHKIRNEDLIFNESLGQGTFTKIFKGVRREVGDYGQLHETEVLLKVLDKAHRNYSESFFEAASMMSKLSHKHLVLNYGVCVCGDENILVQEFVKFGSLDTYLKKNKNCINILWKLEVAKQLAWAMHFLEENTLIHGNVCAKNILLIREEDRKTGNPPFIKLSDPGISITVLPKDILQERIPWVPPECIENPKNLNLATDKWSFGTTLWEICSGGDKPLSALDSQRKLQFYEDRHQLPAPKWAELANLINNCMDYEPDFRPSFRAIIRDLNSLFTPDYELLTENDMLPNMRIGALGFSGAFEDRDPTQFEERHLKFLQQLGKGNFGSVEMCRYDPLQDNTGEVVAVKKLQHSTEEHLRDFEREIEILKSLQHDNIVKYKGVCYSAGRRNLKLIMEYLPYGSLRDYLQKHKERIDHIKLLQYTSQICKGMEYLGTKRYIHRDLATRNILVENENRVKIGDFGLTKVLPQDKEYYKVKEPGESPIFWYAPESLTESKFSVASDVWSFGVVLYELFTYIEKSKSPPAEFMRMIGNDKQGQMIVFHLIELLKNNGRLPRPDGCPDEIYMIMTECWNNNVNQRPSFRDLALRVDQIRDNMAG

Sequence	phosphorylation enrichment
EAEPFYCSLRD [NPHS1_Y1139_R1140C_YF]	1.17
HQKKPYCHAHN [NRAP_Y53]	3.5
LTERDYSFVTT [ACTG2_Y199_G198D]	1.27
LAVPLYKNGVK [CPS1_Y1069]	0.933
YSNKLHYQLEQ [PDPR_Y109_Y109H]	0.757
SVMAEYGLFGA [VSX2_Y219_YF]	0.679
ADDSFYTARSA [ZAP70_Y493_YF]	0.877
INNIDYYKKTT [FGFR2_Y656]	0.618
EWQQIYTFDSG [JUP_Y20_T19I_YF]	1.21
TRSYDYMEGED [FGF7_Y58_G62E]	1.51
CTTIHYNFMCH [TP53_Y234_N239H_YF]	0.75
VDHFGYNKDDK [APOB_Y740_T741N]	1.1
VATRWYRSLEL [CDKL5_Y177_P180L]	0.576
HFGCVYRGTLL [MET_Y1093_H1094R]	1.77
PEIIAYQPFGK [PRKCG_Y529_YF]	0.976
RAILNYIASKF [GSTA3_Y74_YF]	1.29
VRSTEYPCAGL	0.713

Sequence	phosphorylation enrichment
TKDTFYQQPMF [GBA_Y451_K452Q]	0.648
KEIHAYRKLLE [LMNA_Y376_M371K]	0.59
APGNAYGDAGY [SYP_Y250_D248N]	0.851
PFGQWYESHFA [RPS8_Y113_R110G_YF]	0.907
FQEKSYIKGTS [LCTL_Y331_L326F]	0.87
NHRNQYQALKT [CLSPN_Y887_P892T]	0.48
EFNLMYHGTKE [IRF6_Y97_D98H]	0.744
VVSLFYGTALF [OR10C1_Y251_M246V]	1.61
VRFMADTDETF [F8_Y450_Y450D]	1.07
VQNIVYRTASI [CYP39A1_Y102]	0.581
SSWKLYPRMLR [HAO1_Y50_R46S]	0.635
KVALVYGQMNQ [ATP5F1B_Y269_E274Q]	0.841
AGREIYESEKC [TTN_Y4424_D4427E]	0.846
TYQYKYPEGSS [TGM4_Y440_E437Q]	0.743
TENAGYFFQVS	1.21
ASRKFYAMKIL [AKT3_Y174_G171R_YF]	0.7
